In paper PMC4889959 (Nucleic Acids Research, 2016):

Molecular target: the molecule itself
Assay: SEC; 2 mg of protein (20 mg/ml) on a calibrated Superdex 75 column (120 ml), 25 mM pH 8.0 Tris-HCl, 150 mM NaCl, 2 mM DTT

B1: Human SLX4BTB (residues 660–795) (domain or fragment, UniProt Q8IY92 660-795, looked up)
chain: QDKHPDRGGRTLLSLGLLVADFGAMVNNPHLSDVQFQTDSGEVLYAHKFVLYARCPLLIQYVNNEGFSAVEDGVLTQRVLLGDVSTEAARTFLHYLYTADTGLPPGLSSELSSLAHRFGVSELVHLCEQVPIATDS
For B1, which “stoichiometry N” value is on record?
Its value is 2.
